Results: the supplement of paper PMC10567573

B1: SPOPL (parent)
chain: AKREETKAMESQRAYRFVQGKDWG

Variants of: B1
Experiment: protein stability index of a GFP-peptide fusion (GPS, HEK-293T) (PSI 1-6); higher = more stable
Conditions: c terminus: a fixed tail appended
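Further: lentivirally expressed fusions sorted by FACS into six bins by GFP to DsRed ratio, PSI derived from sequencing read proportions per bin multiplied by bin number.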

Protein stability index of substitutions, site by site:
D22: S 3.42 | G 3.96 | E 3.17 | Q 3.18 | Y 2.76 | M 2.95 | R 4.09 | L 2.94 | F 2.94 | A 3.14 | T 3.86 | K 3.77 | H 3.1 | N 2.74 | I 3.4 | W 2.55 | P 3.18 | C 3.13 | V 3.82
K7: Y 3.5 | S 3.23 | E 3.72 | F 2.9 | A 3.52 | G 3.23 | P 3.37 | L 2.44 | R 2.57 | C 1.78 | N 3.25 | I 2.72 | H 2.8 | M 2.62 | W 2.04 | V 2.83 | T 3.53 | D 3.29 | Q 3.04
Q12: V 2.06 | L 1.82 | E 3.65 | M 2.39 | R 2.61 | K 2.94 | P 2.97 | T 2.78 | N 3.35 | I 1.99 | F 2.13 | D 3.85 | W 2.4 | C 2.55 | S 3.4 | A 2.63 | G 2.76 | H 2.48 | Y 2.69
G20: F 3.49 | R 3.59 | C 2.97 | W 2.72 | N 3.76 | P 2.83 | Q 4.14 | K 3.64 | D 4.06 | S 3.35 | L 2.88 | T 3.41 | M 2.58 | I 2.73 | E 4.31 | H 3.33 | Y 3.13 | V 3.19 | A 3.33
S11: A 2.07 | F 2.14 | K 3.15 | C 2.23 | L 2.36 | Y 2.59 | T 2.76 | M 2.33 | W 1.88 | D 4.06 | E 3.77 | V 2.53 | G 2.54 | Q 3.58 | I 2.44 | N 3.47 | H 2.83 | R 2.96 | P 2.72
K21: S 2.67 | N 3.11 | A 2.96 | L 2.67 | F 3.62 | M 3.43 | R 2.51 | V 3.1 | T 3.04 | G 2.83 | Y 3.08 | I 2.94 | C 3.28 | H 2.32 | P 2.4 | E 3.46 | Q 3.02 | D 3.99 | W 3.44
R13: E 4.24 | V 2.28 | M 2.54 | L 2.36 | C 2.72 | H 3.62 | A 3.65 | S 3.38 | Q 3.67 | F 2.8 | D 4.47 | G 3.61 | T 3.42 | I 3.11 | Y 3.32 | W 2.26 | N 3.92 | P 2.61 | K 3.67
W23: L 4.21 | E 5.14 | G 4.88 | D 4.4 | A 4.8 | H 4.77 | C 4.9 | F 3.53 | K 4.87 | I 4.18
T6: R 2.67 | W 2.48 | E 3.51 | K 2.89 | L 3.89 | N 3.34 | P 2.91 | C 3.06 | M 2.32 | F 2.32 | S 3.58 | Y 2.46 | G 2.56 | D 3.18 | Q 3.54 | I 2.34 | A 2.48 | H 3.2 | V 2.29
V18: E 4.15 | N 4.14 | G 3.67 | P 4.07 | I 2.66 | Y 3.78 | F 3.32 | W 2.43 | A 4.22 | H 2.84 | K 4.13 | T 3.96 | D 4.05 | C 3.51 | M 3.42 | L 3.51 | S 4.19 | Q 3.16 | R 3.99
A8: N 3.03 | D 4.01 | P 2.9 | M 2.87 | V 2.42 | I 2.53 | L 2.38 | K 3.44 | T 3.37 | R 3.43 | C 2.75 | S 3.37 | H 3.28 | Y 2.77 | F 2.35 | G 2.48 | Q 3.75 | W 1.37 | E 4.1
F17: N 4.59 | I 4.02 | M 3.96 | A 4.73 | D 4.72 | P 4.03 | H 3.72 | Q 4.37 | K 4.45 | C 4.24 | W 4.36 | L 3.67 | T 4.04 | R 4.59 | S 4.19 | G 4.68 | Y 4.18 | E 4.61 | V 3.94
M9: W 2.74 | K 3.35 | I 3.55 | Q 3.69 | G 3.45 | T 3.66 | E 3.85 | L 3 | F 2.79 | R 3.11 | S 3.87 | P 3.27 | D 3.71 | C 3.58 | H 3.25 | Y 2.83 | N 3.33 | A 3.66 | V 3.43
E5: Y 1.71 | W 1.75
Y15: P 4.21 | M 3.02 | D 5.19 | Q 3.89 | I 4.26 | R 4.3 | H 3.98 | F 1.39 | T 4.7 | K 4.61 | G 4 | L 2.51 | N 4.35 | A 4.14 | E 4.26 | S 4.68 | C 2.9 | W 3.25 | V 3.92
E10: R 2.39 | D 3.02 | I 2.15 | W 2.4 | A 2.61 | C 2.63 | L 2.3 | S 3 | T 3.06 | M 2.29 | H 2.33 | Q 2.95 | F 2.37 | P 3.18 | Y 1.73 | K 2.96 | N 3.34 | V 2.75 | G 2.69
R16: K 3.99 | W 2.94 | M 3.65 | P 3.68 | F 2.63 | V 3.51 | H 4.49 | E 4.2 | Y 3.24 | D 4.07 | C 3.77 | S 4.04 | G 3.63 | L 3.6 | N 4.2 | I 3.42 | A 3.69 | Q 4.17 | T 4.04
A14: W 2.81 | Q 3.25 | G 1.9 | T 3.63 | Y 2.83 | C 2.82 | E 3.67 | L 3.3 | K 3.98 | R 3.18 | I 3.8 | F 3.49 | V 3.42 | H 3.38 | P 2.83 | M 3.49 | D 3.1 | N 3.24 | S 3.3
Q19: S 2.44 | I 2.6 | E 2.6 | T 2.73 | P 3.22 | H 3.04 | F 3.19 | L 2.15 | D 2.54 | C 2.68 | K 3.43 | W 2.38 | Y 2.77 | M 2.25 | N 2.85 | A 1.15 | R 3.93 | V 2.37
